In paper doi:10.1101/2025.02.19.639050 (bioRxiv, 2025):

What was measured:
Oncostatin M = molecular target: T1, Oncostatin M (Homo sapiens, UniProt P13725); test: SPR; Biacore 8K+; antibody captured on a Protein A chip, antigen injected (typically 0.16, 0.8, 4, 20 and 100 nM; 180 s association, 600 s dissociation, 30 µl/min); HBS-EP buffer pH 7.4, 0.15 M NaCl; single cycle or multi cycle kinetics; 1:1 binding model; details: both partners purified
T1 construct: Oncostatin M (OSM), the antigen injected in SPR; also called OSM
T1 sequence (P13725 26-221): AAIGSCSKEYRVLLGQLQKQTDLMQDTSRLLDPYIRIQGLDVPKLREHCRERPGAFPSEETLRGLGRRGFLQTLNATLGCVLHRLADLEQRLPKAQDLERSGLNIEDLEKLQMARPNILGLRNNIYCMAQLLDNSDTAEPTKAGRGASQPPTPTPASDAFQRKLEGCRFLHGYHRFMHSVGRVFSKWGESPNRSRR

[1] = molecular target: T2, Human epidermal growth factor receptor 2 (Homo sapiens, UniProt P04626); test: as above; details: both partners purified
T2 construct: ERBB2), the antigen injected in SPR; also called HER2; ERBB2

Binder | binding result (Oncostatin M) | fold improvement in affinity relative to the seed OSM-N021 (Oncostatin M) | ΔpKD relative to the seed OSM-N021 (Oncostatin M) | fold improvement in binding relative to trastuzumab (hu4D5) [1] | ΔpKD relative to trastuzumab (hu4D5) [1]
seed OSM-N021 (antibody, V domains shown, IgG in SPR; the Fab was crystallised; source: Expi293F, transient (GLFs), purified (Protein A)) VH: EVQLVESGGGLVQPGGSLRLSCAASGFTFNIYSMNWVRQAPGKGLEWISYISGNSNTIYYADSVKGRFTISRDNAKNSVYLQMNSLRDEDTAVYYCARSLLRYFDWLSAFDIWGQGTMVTVSS VL: EIVLTQSPGTLSLSPGERATLSCRASQSVGSSYLAWYQQRPGQAPRLLIHGASSRATGIPDRFSGSGSGTDFTLTISGLEPEDVAVYYCQQYGSSPLTFGGGTKVEIK | binds |  |  |  | 
ERBB2-P00873 (antibody, V domains shown, as the heavy chain of m2 (trastuzumab, PDB 1N8Z) with changes; as the light chain of m2 (trastuzumab, PDB 1N8Z); Expressed as IgG; also called design of hu4D5 (5 edits, 1 insertion); source: Expi293F, transient (GLFs), purified (Protein A)) VH: VQLVESDGGGLVQQGGSLRLSCAASGFNIKDRYIHWVRQAPGKGLEWVARIYPTNGYTRYADRVKGRFTISADTSKNTAYLQMFSLRAEDTAVYYCSRWGGDGFYAMDYWGQGTLVTVSS VL: not shown |  |  |  | > 4 fold | 0.688

More lines, now with the values ahead:

binding result (Oncostatin M) | fold improvement in affinity relative to the seed OSM-N021 (Oncostatin M) | ΔpKD relative to the seed OSM-N021 (Oncostatin M) | fold improvement in binding relative to trastuzumab (hu4D5) [1] | ΔpKD relative to trastuzumab (hu4D5) [1] | Binder
 | 3.6 fold | 0.56 |  |  | design 9N7M (antibody, V domains shown, the Fab of this design is deposited as PDB 9N7M (heavy chain); the Fab of this design is deposited as PDB 9N7M (light chain); IgG in SPR; the Fab (CHO) was crystallised; also called design of seed OSM-N021 with G+Y mutations in the stem region of CDRH3; source: Expi293F, transient (GLFs), purified (Protein A)) VH: EVQLVESGGGLVQPGGSLRLSCAASGFTFNIYSMNWVRQAPGKGLEWISYISSGSNTIYYADSVKGRFTISRDNAENSLYLQMNSLRDEDTAVYYCARSGLRYFDWLSYFDIWGQGTLVTVSS VL: EIVLTQSPGTLSLSPGERATLSCRASQSVGSSYLAWYQQRPGQAPRLLIHGASSRATGIPDRFSGSGSGTDFTLTISGLEPEDVAVYYCQQYGSSPLTFGGGTKVEIK
 | ~4.5 fold | 0.65 |  |  | design 9N7O (antibody, V domains shown, the Fab of this design is deposited as PDB 9N7O (heavy chain); the Fab of this design is deposited as PDB 9N7O (light chain); IgG in SPR; the Fab (CHO) was crystallised; also called design of seed OSM-N021 with S+Y mutations in the stem region of CDRH3; source: Expi293F, transient (GLFs), purified (Protein A)) VH: EVQLVESGGGLVQPGGSLRLSCAASGFTFTIYSMNWVRQAPGKGLEWISYISSGSNTIYYADSVKGRFTISRDNAKNSLYLQMNSLRDEDTAVYYCARSSLRYFDWLSYFDYWGQGTMVTVSS VL: EIVLTQSPGTLSLSPGERATLSCRASQSVGSSYLAWYQQRPGQAPRLLIHGASSRATGIPDRFSGSGSGTDFTLTISGLEPEDVAVYYCQQYGSSPLTFGGGTKVEIK
